Experimental data taken from paper PMC9482650, “Quantitative fragmentomics allow affinity mapping of interactomes” (Nature Communications, 2022).
Numbering of substitutions follows the chain as printed.

T1: PDZRN3_1, Q9UPQ7
T1 sequence (Q9UPQ7 244-349, limits assumed, looked up): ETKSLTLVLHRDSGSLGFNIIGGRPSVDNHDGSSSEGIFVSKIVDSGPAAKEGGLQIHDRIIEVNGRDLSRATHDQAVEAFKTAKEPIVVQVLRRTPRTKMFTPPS

T2: DLG3_2, Q92796
T2 sequence (Q92796 221-321, limits assumed, looked up): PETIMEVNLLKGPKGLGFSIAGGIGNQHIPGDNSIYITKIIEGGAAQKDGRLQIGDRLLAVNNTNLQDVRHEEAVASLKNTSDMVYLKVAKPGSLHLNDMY

T3: DFNB31_2, Q9P202
T3 sequence (Q9P202 274-371, limits assumed, looked up): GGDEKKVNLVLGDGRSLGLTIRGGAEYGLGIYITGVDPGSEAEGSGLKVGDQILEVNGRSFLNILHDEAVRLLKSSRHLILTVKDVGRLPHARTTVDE

T4: LIN7C, Q9NUP9
T4 sequence (Q9NUP9 88-185, limits assumed, looked up): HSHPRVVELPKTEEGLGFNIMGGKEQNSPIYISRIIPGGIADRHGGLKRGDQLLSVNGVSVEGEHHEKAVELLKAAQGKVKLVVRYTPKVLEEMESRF

T5: LIN7B, Q9HAP6
T5 sequence (Q9HAP6 88-185, limits assumed, looked up): T4 sequence (Q9NUP9 88-185, limits assumed, looked up) with S2A, E13D, I35V, I40V, H65Q, K79S, K89R, S96A

T6: APBA1_1, Q02410
T6 sequence (Q02410 651-752, limits assumed, looked up): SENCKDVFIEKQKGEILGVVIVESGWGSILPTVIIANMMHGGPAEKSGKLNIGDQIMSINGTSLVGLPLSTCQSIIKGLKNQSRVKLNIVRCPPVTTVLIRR

T7: MPP7, Q5T2T1
T7 sequence (Q5T2T1 134-230, limits assumed, looked up): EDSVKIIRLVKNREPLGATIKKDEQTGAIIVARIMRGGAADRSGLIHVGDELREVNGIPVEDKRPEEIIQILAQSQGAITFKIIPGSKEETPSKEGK

T8: HTRA3, P83110
T8 sequence (P83110 354-453, limits assumed, looked up): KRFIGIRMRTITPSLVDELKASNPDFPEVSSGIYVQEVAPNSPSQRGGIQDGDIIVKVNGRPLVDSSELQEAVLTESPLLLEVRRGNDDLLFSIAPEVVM

T9: GRIP1_4, Q9Y3R0
T9 sequence (Q9Y3R0 467-571, limits assumed, looked up): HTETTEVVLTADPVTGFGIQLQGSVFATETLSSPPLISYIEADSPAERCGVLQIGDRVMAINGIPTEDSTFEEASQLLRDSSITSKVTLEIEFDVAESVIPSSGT

T10: GRIP1_3, Q9Y3R0
T10 sequence (Q9Y3R0 247-346, limits assumed, looked up): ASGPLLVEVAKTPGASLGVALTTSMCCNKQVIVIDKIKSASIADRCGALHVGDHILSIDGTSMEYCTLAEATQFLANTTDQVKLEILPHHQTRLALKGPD

T11: ARHGAP21, Q5T5U3
T11 sequence (Q5T5U3 45-169, limits assumed, looked up): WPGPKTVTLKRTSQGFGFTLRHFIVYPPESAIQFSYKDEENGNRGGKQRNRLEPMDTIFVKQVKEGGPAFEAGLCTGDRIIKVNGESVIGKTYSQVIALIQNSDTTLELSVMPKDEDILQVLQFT

B1: CLDN14, O95500 (peptide)
chain: HSGYRLNDYV
B2: GRIN2A, Q12879 (peptide)
chain: KKMPSIESDV
B3: TBC1D10A, Q9BXI6 (peptide)
chain: TSQESEDTYL

Target: MAGI2_4, Q86UL8
Test: holdup assay
Design: key: below the threshold = too weak to quantify, mostly under pKd 3.1 to 4
Settings: plain residues with an end cap or a label only (N-terminal biotin on a linker: ado-ado)

MAGI2_4, Q86UL8, sequence (Q86UL8 772-865): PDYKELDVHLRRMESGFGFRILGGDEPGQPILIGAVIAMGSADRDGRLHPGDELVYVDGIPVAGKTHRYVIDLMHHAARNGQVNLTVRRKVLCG

pKd | Binder
3.94 | B1
below the threshold | B2
below the threshold | B3

Target: T1, PDZRN3_1, Q9UPQ7
Test: holdup assay
Design: key: below the threshold = too weak to quantify, mostly under pKd 3.1 to 4
Settings: plain residues with an end cap or a label only (N-terminal biotin on a linker: ado-ado)

pKd | Binder
below the threshold | B1
below the threshold | B2
3.48 | B3

Target: LNX1_1, Q8TBB1
Test: holdup assay
Design: key: below the threshold = too weak to quantify, mostly under pKd 3.1 to 4
Settings: plain residues with an end cap or a label only (N-terminal biotin on a linker: ado-ado)

LNX1_1, Q8TBB1, sequence (Q8TBB1 261-371): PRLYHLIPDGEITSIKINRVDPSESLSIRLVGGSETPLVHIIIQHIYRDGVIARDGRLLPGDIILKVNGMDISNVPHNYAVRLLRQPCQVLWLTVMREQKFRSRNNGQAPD

pKd | Binder
below the threshold | B1
4.04 | B2
below the threshold | B3

Target: T2, DLG3_2, Q92796
Test: holdup assay
Design: key: below the threshold = too weak to quantify, mostly under pKd 3.1 to 4
Settings: plain residues with an end cap or a label only (N-terminal biotin on a linker: ado-ado)

pKd | Binder
below the threshold | B1
5.25 | B2
3.61 | B3

Target: GRID2IP_1, A4D2P6
Test: holdup assay
Design: key: below the threshold = too weak to quantify, mostly under pKd 3.1 to 4
Settings: plain residues with an end cap or a label only (N-terminal biotin on a linker: ado-ado)

GRID2IP_1, A4D2P6, sequence (A4D2P6 1-87): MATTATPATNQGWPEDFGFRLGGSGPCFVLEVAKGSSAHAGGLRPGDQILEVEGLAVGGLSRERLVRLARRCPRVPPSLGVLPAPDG

pKd | Binder
below the threshold | B1
below the threshold | B2
below the threshold | B3

Target: GRIP2_5, Q9C0E4
Test: holdup assay
Design: key: below the threshold = too weak to quantify, mostly under pKd 3.1 to 4
Settings: plain residues with an end cap or a label only (N-terminal biotin on a linker: ado-ado)

GRIP2_5, Q9C0E4, sequence (Q9C0E4 544-642): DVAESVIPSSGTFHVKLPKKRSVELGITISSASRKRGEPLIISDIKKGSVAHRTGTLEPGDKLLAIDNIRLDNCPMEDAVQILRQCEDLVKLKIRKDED

pKd | Binder
below the threshold | B1
below the threshold | B2
below the threshold | B3

Target: GORASP2, Q9H8Y8
Test: holdup assay
Design: key: below the threshold = too weak to quantify, mostly under pKd 3.1 to 4
Settings: plain residues with an end cap or a label only (N-terminal biotin on a linker: ado-ado)

pKd | Binder
3.85 | B1
below the threshold | B2
below the threshold | B3

Target: Inadl_2, Q8NI35
Test: holdup assay
Design: key: below the threshold = too weak to quantify, mostly under pKd 3.1 to 4
Settings: plain residues with an end cap or a label only (N-terminal biotin on a linker: ado-ado)

Inadl_2, Q8NI35, sequence (Q8NI35 238-335): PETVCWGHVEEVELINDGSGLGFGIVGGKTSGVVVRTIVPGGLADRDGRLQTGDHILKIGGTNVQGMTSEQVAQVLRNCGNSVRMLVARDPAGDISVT

pKd | Binder
below the threshold | B1
below the threshold | B2
below the threshold | B3

Target: DLG4_1, P78352
Test: holdup assay
Design: key: below the threshold = too weak to quantify, mostly under pKd 3.1 to 4
Settings: plain residues with an end cap or a label only (N-terminal biotin on a linker: ado-ado)

DLG4_1, P78352, sequence (P78352 62-152): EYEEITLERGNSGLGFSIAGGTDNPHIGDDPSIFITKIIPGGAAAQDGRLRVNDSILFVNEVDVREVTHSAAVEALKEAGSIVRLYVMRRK

pKd | Binder
below the threshold | B1
4.71 | B2
below the threshold | B3

Target: GIPC2, Q8TF65
Test: holdup assay
Design: key: below the threshold = too weak to quantify, mostly under pKd 3.1 to 4
Settings: plain residues with an end cap or a label only (N-terminal biotin on a linker: ado-ado)

GIPC2, Q8TF65, sequence (Q8TF65 112-203): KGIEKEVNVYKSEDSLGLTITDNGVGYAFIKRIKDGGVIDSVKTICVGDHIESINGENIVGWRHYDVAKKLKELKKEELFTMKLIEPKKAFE

pKd | Binder
below the threshold | B1
3.84 | B2
below the threshold | B3

Target: NHERF4_2, Q86UT5
Test: holdup assay
Design: key: below the threshold = too weak to quantify, mostly under pKd 3.1 to 4
Settings: plain residues with an end cap or a label only (N-terminal biotin on a linker: ado-ado)

NHERF4_2, Q86UT5, sequence (Q86UT5 220-308): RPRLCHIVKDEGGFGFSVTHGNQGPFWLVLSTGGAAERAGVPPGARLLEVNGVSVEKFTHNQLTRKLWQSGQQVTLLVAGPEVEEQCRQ

pKd | Binder
below the threshold | B1
below the threshold | B2
below the threshold | B3

Target: T3, DFNB31_2, Q9P202
Test: holdup assay
Design: key: below the threshold = too weak to quantify, mostly under pKd 3.1 to 4
Settings: plain residues with an end cap or a label only (N-terminal biotin on a linker: ado-ado)

pKd | Binder
below the threshold | B1
below the threshold | B2
below the threshold | B3

Target: FRMPD3, Q5JV73
Test: holdup assay
Design: key: below the threshold = too weak to quantify, mostly under pKd 3.1 to 4
Settings: plain residues with an end cap or a label only (N-terminal biotin on a linker: ado-ado)

FRMPD3, Q5JV73, sequence (Q5JV73 12-100): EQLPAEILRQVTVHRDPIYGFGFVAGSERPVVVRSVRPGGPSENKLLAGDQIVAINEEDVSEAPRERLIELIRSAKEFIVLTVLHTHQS

pKd | Binder
below the threshold | B1
below the threshold | B2
4.39 | B3

Target: T4, LIN7C, Q9NUP9
Test: holdup assay
Design: key: below the threshold = too weak to quantify, mostly under pKd 3.1 to 4
Settings: plain residues with an end cap or a label only (N-terminal biotin on a linker: ado-ado)

pKd | Binder
below the threshold | B1
below the threshold | B2
below the threshold | B3

Target: T5, LIN7B, Q9HAP6
Test: holdup assay
Design: key: below the threshold = too weak to quantify, mostly under pKd 3.1 to 4
Settings: plain residues with an end cap or a label only (N-terminal biotin on a linker: ado-ado)

pKd | Binder
below the threshold | B1
3.71 | B2
below the threshold | B3

Target: T6, APBA1_1, Q02410
Test: holdup assay
Design: key: below the threshold = too weak to quantify, mostly under pKd 3.1 to 4
Settings: plain residues with an end cap or a label only (N-terminal biotin on a linker: ado-ado)

pKd | Binder
below the threshold | B1
below the threshold | B2
below the threshold | B3

Target: MAGI2_3, Q86UL8
Test: holdup assay
Design: key: below the threshold = too weak to quantify, mostly under pKd 3.1 to 4
Settings: plain residues with an end cap or a label only (N-terminal biotin on a linker: ado-ado)

MAGI2_3, Q86UL8, sequence (Q86UL8 600-682): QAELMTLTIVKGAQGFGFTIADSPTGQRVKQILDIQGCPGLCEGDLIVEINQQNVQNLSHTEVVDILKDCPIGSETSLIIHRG

pKd | Binder
below the threshold | B1
below the threshold | B2
below the threshold | B3

Target: T7, MPP7, Q5T2T1
Test: holdup assay
Design: key: below the threshold = too weak to quantify, mostly under pKd 3.1 to 4
Settings: plain residues with an end cap or a label only (N-terminal biotin on a linker: ado-ado)

pKd | Binder
below the threshold | B1
below the threshold | B2
below the threshold | B3

Target: GORASP1, Q9BQQ3
Test: holdup assay
Design: key: below the threshold = too weak to quantify, mostly under pKd 3.1 to 4
Settings: plain residues with an end cap or a label only (N-terminal biotin on a linker: ado-ado)

GORASP1, Q9BQQ3, sequence (Q9BQQ3 1-208): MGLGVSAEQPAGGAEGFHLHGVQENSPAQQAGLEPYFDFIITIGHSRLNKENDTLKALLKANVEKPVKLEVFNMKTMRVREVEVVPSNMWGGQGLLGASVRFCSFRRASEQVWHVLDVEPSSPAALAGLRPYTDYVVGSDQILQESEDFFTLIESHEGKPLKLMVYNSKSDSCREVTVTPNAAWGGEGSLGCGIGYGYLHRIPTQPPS

pKd | Binder
3.75 | B1
below the threshold | B2
below the threshold | B3

Target: T8, HTRA3, P83110
Test: holdup assay
Design: key: below the threshold = too weak to quantify, mostly under pKd 3.1 to 4
Settings: plain residues with an end cap or a label only (N-terminal biotin on a linker: ado-ado)

pKd | Binder
4.55 | B1
below the threshold | B2
below the threshold | B3

Target: T9, GRIP1_4, Q9Y3R0
Test: holdup assay
Design: key: below the threshold = too weak to quantify, mostly under pKd 3.1 to 4
Settings: plain residues with an end cap or a label only (N-terminal biotin on a linker: ado-ado)

pKd | Binder
below the threshold | B1
below the threshold | B2
below the threshold | B3

Target: T10, GRIP1_3, Q9Y3R0
Test: holdup assay
Design: key: below the threshold = too weak to quantify, mostly under pKd 3.1 to 4
Settings: plain residues with an end cap or a label only (N-terminal biotin on a linker: ado-ado)

pKd | Binder
below the threshold | B1
below the threshold | B2
below the threshold | B3

Target: FRMPD4, Q14CM0
Test: holdup assay
Design: key: below the threshold = too weak to quantify, mostly under pKd 3.1 to 4
Settings: plain residues with an end cap or a label only (N-terminal biotin on a linker: ado-ado)

FRMPD4, Q14CM0, sequence (Q14CM0 67-160): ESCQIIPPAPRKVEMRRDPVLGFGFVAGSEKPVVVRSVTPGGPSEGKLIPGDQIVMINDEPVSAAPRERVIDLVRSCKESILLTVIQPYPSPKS

pKd | Binder
3.58 | B1
below the threshold | B2
5.3 | B3

Target: T11, ARHGAP21, Q5T5U3
Test: holdup assay
Design: key: below the threshold = too weak to quantify, mostly under pKd 3.1 to 4
Settings: plain residues with an end cap or a label only (N-terminal biotin on a linker: ado-ado)

pKd | Binder
3.95 | B1
below the threshold | B2
4.45 | B3

Target: CASK, O14936
Test: holdup assay
Design: key: below the threshold = too weak to quantify, mostly under pKd 3.1 to 4
Settings: plain residues with an end cap or a label only (N-terminal biotin on a linker: ado-ado)

CASK, O14936, sequence (O14936 487-570): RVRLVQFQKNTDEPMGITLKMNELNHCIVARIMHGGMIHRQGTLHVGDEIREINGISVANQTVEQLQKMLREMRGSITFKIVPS

pKd | Binder
below the threshold | B1
below the threshold | B2
below the threshold | B3
